Blank lines part the entries; values can stand above or below the binder they belong to. Starred links: 1 amine or outer side, 2 acyl side, 3 side chain; linkers in the order of their positions; H or OH if unused. Positions of bridges follow the written chain, without caps; N, C: chain ends. Non-standard residues stand in square brackets, D forms with d. Primed or numbered codes have the meaning given here. *: point of attachment. Af3(Hspy) = 3-amino-L-phenylalanine, ring amine acylated with 4-sulfamoyl-1H-pyrrole-2-carboxylic acid, NS(=O)(=O)c1c[nH]c(C(=O)Nc2cccc(C[C@H](N[*:1])C(=O)[*:2])c2)c1; Aph(4SaPy2Ac) = 4-amino-L-phenylalanine, ring amine acylated by (4-sulfamoyl-pyrazol-1-yl)-acetic acid, NS(=O)(=O)c1cnn(CC(=O)Nc2ccc(C[C@H](N[*:1])C(=O)[*:2])cc2)c1; Aph(6SaPyr3) = 4-amino-L-phenylalanine, ring amine acylated by 6-sulfamoylpyridine-3-carboxylic acid, NS(=O)(=O)c1ccc(C(=O)Nc2ccc(C[C@H](N[*:1])C(=O)[*:2])cc2)cn1; Aph(Hsfu) = 4-amino-L-phenylalanine, ring amine acylated with 4-sulfamoylfuran-2-carboxylic acid, NS(=O)(=O)c1coc(C(=O)Nc2ccc(C[C@H](N[*:1])C(=O)[*:2])cc2)c1; Ttds(4) = 1,13-diamino-4,7,10-trioxatridecan-succinamic acid spacer, O=C(CCC(=O)[*:2])NCCCOCCOCCOCCCN[*:1]; Af3(Btda) = 3-amino-L-phenylalanine, ring amine acylated by benzothiadiazine-7-carboxylic acid; DOTA = O=C(O)CN1CCN(CC(=O)O)CCN(CC(=O)*)CCN(CC(=O)O)CC1; Biotin = O=C1N[C@H]2[C@H](CS[C@H]2CCCCC(=O)*)N1; PPAc = 4-carboxymethyl piperazine linker; mXylylene = c1cc(C[*:1])cc(C[*:2])c1; APAc = not defined here
Key:
[1] = biological target: T1, human carbonic anhydrase IX (CAIX) (human, UniProt Q16790 38-459); assay: FACS competition, HT-29 cells, tracer 3BP-2776; pIC50 category B: 7.1-8.0
Description: (§1) CAIX-expressing human HT-29 colorectal cancer cells (DSMZ, RRID: CVCL_0320) were cultured in McCoys's 5A modified medium (Biochrom, #F1015) including 10% fetal calf serum (FCS), 2 mM L-glutamine, 100 U/ml penicillin and 100 μg/mL streptomycin. Cells were detached with Accutase (Biolegend, #423201) and washed in FACS buffer (PBS including 1% FCS). Cells were diluted in FACS buffer to a final concentration of 500.000 cells per ml. 200 μL of the cell suspension were transferred to a u-shaped non-binding 96-well plate (Greiner) and cells were washed in ice-cold FACS buffer.
(§2) When biotinylated compounds were used an additional incubation step with 1 μg/mL APC-Streptavidin (Miltenyi; #130-106-791) in 50 μL FACS buffer for 30 minutes on ice was performed.
(§3) Cells were washed twice with ice-cold FACS buffer and analyzed in an Attune NxT flow cytometer (Thermo Fisher). Median fluorescence intensities (MFI) of the APC/Cy5-channel were calculated by Attune NxT software.

[2] = biological target: T2, Fc-fusion protein of human carbonic anhydrase IX (human, UniProt Q16790 38-414); assay: SPR, captured hCAIX-Fc; pKD category B: 7.1-8.0
Description: Stock solutions of test compounds were prepared by dissolving each compound in DMSO. DMSO stock solution were diluted 1:1000 in Running Buffer without DMSO. […] SPR binding analyses were performed in Single Cycle Kinetic (SCK) mode at 25° C.
For each test compound, SPR raw data in the form of resonance units (RU) were plotted as sensorgrams using the Biacore™ T200 control software. The signal from the blank sensorgram was subtracted from that of the test compound sensorgram (blank corrected). The blank corrected sensorgram was corrected for baseline drift by subtracting the sensorgram of a SCK run without the test compound (running buffer only). […] Raw data and fit results were imported as text files in IDBS. The pKD value (negative decadic logarithm of dissociation constant) was calculated in the IDBS excel template.

[3] = biological target: T2, Fc-fusion protein of human carbonic …; assay: SPR, captured hCAIX-Fc; t1/2 category C: 2.1-5.0 min
[4] = biological target: human carbonic anhydrase 9 (CAIX) (human, UniProt Q16790 38-459); assay: FACS binding assay on CAIX-expressing HT-29 cells, biotinylated compound detected with APC-streptavidin; pEC50 category (A = pEC50 >8.0)
Description: as §1, §2, §3

[5] = biological target: T1, human carbonic anhydrase IX (CAIX); assay: FACS competition, HT-29 cells, tracer 3BP-4149; pIC50 category C: 6.1-7.0
Description: as §1, §2, §3

Binder: {DOTA-PPAc}-QCE[dP]D[Aph(4SaPy2Ac)]LTWSC-NH2 (linker 2-11 via mXylylene) [3BP-4482]
pIC50 [5]: 6.1 to 7 pic50

Binder: {DOTA-PPAc}-QCE[dP]D[Aph(6SaPyr3)]LTWSC-NH2 (linker 2-11 via mXylylene) [3BP-4481]
pIC50 [5]: 6.1 to 7 pic50

Binder: {DOTA-APAc}-VYCE[dP]D[Af3(Btda)]LTWSC-NH2 (linker 3-12 via mXylylene; reading uncertain) [3BP-4415]
pIC50 [5]: 6.1 to 7 pic50

Other lines, results leading:

pIC50 [1]: 7.1 to 8 pic50
pKD [2]: 7.1 to 8 pkd
t1/2 (half-life of the complex, SPR) [3]: 2.1 to 5 min
Binder: {DOTA-PPAc}-QCE[dP]D[Af3(Hspy)]LTWSC-NH2 (linker 2-11 via mXylylene) [3BP-4789]

pEC50 [4]: > 8 pec50
B1: 3BP-2777: H-Met-Val-Tyr-[Cys(3MeBn)-Glu-Gly-Ser-Trp-Leu-Gly-Trp-Ser-Cys]-Ttds-Lys(Bio)-NH2 (peptide)
peptide: H-MVYCEGSWLGWSC[Ttds(4)]K(Biotin)-NH2
modifications: linker 4-13 via mXylylene
SMILES: CSCC[C@H](N)C(=O)N[C@H](C(=O)N[C@@H](Cc1ccc(O)cc1)C(=O)N[C@H]1CSCc2cccc(c2)CSC[C@@H](C(=O)NCCCOCCOCCOCCCNC(=O)CCC(=O)N[C@@H](CCCCNC(=O)CCCC[C@@H]2SC[C@@H]3NC(=O)N[C@@H]32)C(N)=O)NC(=O)[C@H](CO)NC(=O)[C@H](Cc2c[nH]c3ccccc23)NC(=O)CNC(=O)[C@H](CC(C)C)NC(=O)[C@H](Cc2c[nH]c3ccccc23)NC(=O)[C@H](CO)NC(=O)CNC(=O)[C@H](CCC(=O)O)NC1=O)C(C)C
notes: Cyclic peptide, biotinylated

pIC50 [1]: 7.1 to 8 pic50
pKD [2]: 7.1 to 8 pkd
t1/2 (half-life of the complex, SPR) [3]: 2.1 to 5 min
Binder: {DOTA-PPAc}-QCE[dP]D[Aph(Hsfu)]LTWSC-NH2 (linker 2-11 via mXylylene) [3BP-4813]

pEC50 [4]: > 8 pec50
B2: 3BP-2776: H-Met-Val-Tyr-[Cys(3MeBn)-Glu-Gly-Asp-Trp-Leu-Thr-Trp-Gln-Cys]-Ttds-Lys(Bio)-NH2 (peptide)
peptide: H-MVYCEGDWLTWQC[Ttds(4)]K(Biotin)-NH2
modifications: linker 4-13 via mXylylene
SMILES: CSCC[C@H](N)C(=O)N[C@H](C(=O)N[C@@H](Cc1ccc(O)cc1)C(=O)N[C@H]1CSCc2cccc(c2)CSC[C@@H](C(=O)NCCCOCCOCCOCCCNC(=O)CCC(=O)N[C@@H](CCCCNC(=O)CCCC[C@@H]2SC[C@@H]3NC(=O)N[C@@H]32)C(N)=O)NC(=O)[C@H](CCC(N)=O)NC(=O)[C@H](Cc2c[nH]c3ccccc23)NC(=O)[C@H]([C@@H](C)O)NC(=O)[C@H](CC(C)C)NC(=O)[C@H](Cc2c[nH]c3ccccc23)NC(=O)[C@H](CC(=O)O)NC(=O)CNC(=O)[C@H](CCC(=O)O)NC1=O)C(C)C
notes: Cyclic peptide, biotinylated

pEC50 [4]: > 8 pec50
B3: 3BP-2778: H-Met-Arg-[Cys(3MeBn)-Glu-Ile-Trp-Val-Asp-Gly-Trp-Val-Asp-Cys]-Ttds-Lys(Bio)-NH2 (peptide)
peptide: H-MRCEIWVDGWVDC[Ttds(4)]K(Biotin)-NH2
modifications: linker 3-13 via mXylylene
SMILES: CC[C@H](C)[C@@H]1NC(=O)[C@H](CCC(=O)O)NC(=O)[C@@H](NC(=O)[C@H](CCCNC(=N)N)NC(=O)[C@@H](N)CCSC)CSCc2cccc(c2)CSC[C@@H](C(=O)NCCCOCCOCCOCCCNC(=O)CCC(=O)N[C@@H](CCCCNC(=O)CCCC[C@@H]2SC[C@@H]3NC(=O)N[C@@H]32)C(N)=O)NC(=O)[C@H](CC(=O)O)NC(=O)[C@H](C(C)C)NC(=O)[C@H](Cc2c[nH]c3ccccc23)NC(=O)CNC(=O)[C@H](CC(=O)O)NC(=O)[C@H](C(C)C)NC(=O)[C@H](Cc2c[nH]c3ccccc23)NC1=O
notes: Cyclic peptide, biotinylated
